The text below walks through data of the supplement of paper PMC5998384.

The subject of series [1] is HeLa Kyoto. Kind of series: solubility in G1/S (NP-40 vs SDS abundance) (log2 ratio); higher = more soluble. To be noted: cell cycle stage: G1/S.
In series [2] the test system is HeLa Kyoto. The experiment in a line: thermal stability score vs G1/S (z-score of summed log2 fold changes over temperatures); higher = more thermally stable than in G1/S.
Series [3] has as its system HeLa Kyoto. Kind of series: solubility change mitosis vs G1/S (difference of NP-40 vs SDS log2 ratios) (log2 ratio difference); higher = more soluble in mitosis.
In series [4] the test system is HeLa Kyoto. The experiment in a line: melting temperature (median over replicates), in situ; higher = more thermally stable.
The mark [5] stands for this setting: cell cycle stage: early G1 (4.5 h after nocodazole release).
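Throughout, for melting temperature (median over replicates), in situ: HeLa Kyoto cells synchronized by double thymidine or nocodazole block, proteins quantified by TMT10plex mass spectrometry, three independent biological replicates.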
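Throughout, for solubility change mitosis vs G1/S (difference of NP-40 vs SDS log2 ratios): synchronized HeLa Kyoto cells (double thymidine block for G1/S, nocodazole release for mitosis), protein amounts in NP-40 versus SDS lysates quantified by mass spectrometry, three biological replicates.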
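Throughout, for solubility in G1/S (NP-40 vs SDS abundance): HeLa Kyoto cells arrested at G1/S by double thymidine block, proteins quantified by TMT10plex mass spectrometry in mild NP-40 versus SDS extracts, three biological replicates.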
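Throughout, for thermal stability score vs G1/S (z-score of summed log2 fold changes over temperatures): synchronized HeLa Kyoto cells, proteins quantified by TMT10plex mass spectrometry, three biological replicates, mitosis taken 0.5 h after nocodazole release, G1/S directly after double thymidine block.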

As to “MGKAAAPSRGGGCGGRSRGLSSLFTVVPCLSCHTAAPGMSASTSGSGPEPKPQPQPVPEPERGPLSEQVSEAVSEAVPRSEPVSETTSEPEPGAGQPSELLQGSRPGSESSSGVGAGPFTKAASEPLSRAVGSATFLRPESGSLPALKPLPLLRPGQAKTPLGVPMSGTGTTSSAPLALLPLDSFEGWLLKWTNYLKGYQRRWFVLGNGLLSYYRNQGEMAHTCRGTINLSTAHIDTEDSCGILLTSGARSYHLKASSEVDRQQWITALELAKAKAVRVMNTHSDDSGDDDEATTPADKSELHHTLKNLSLKLDDLSTCNDLIAKHGAALQRSLTELDGLKIPSESGEKLKVVNERATLFRITSNAMINACRDFLELAEIHSRKWQRALQYEQEQRVHLEETIEQLAKQHNSLERAFHSAPGRPANPSKSFIEGSLLTPKGEDSEEDEDTEYFDAMEDSTSFITVITEAKEDSRKAEGSTGTSSVDWSSADNVLDGASLVPKGSSKVKRRVRIPNKPNYSLNLWSIMKNCIGRELSRIPMPVNFNEPLSMLQRLTEDLEYHHLLDKAVHCTSSVEQMCLVAAFSVSSYSTTVHRIAKPFNPMLGETFELDRLDDMGLRSLCEQVSHHPPSAAHYVFSKHGWSLWQEITISSKFRGKYISIMPLGAIHLEFQASGNHYVWRKSTSTVHNIIVGKLWIDQSGDIEIVNHKTNDRCQLKFLPYSYFSKEAARKVTGVVSDSQGKAHYVLSGSWDEQMECSKVMHSSPSSPSSDGKQKTVYQTLSAKLLWKKYPLPENAENMYYFSELALTLNEHEEGVAPTDSRLRPDQRLMEKGRWDEANTEKQRLEEKQRLSRRRRLEACGPGSSCSSEEEKEADAYTPLWFEKRLDPLTGEMACVYKGGYWEAKEKQDWHMCPNIF [OSBP2]”, in series [1], the “solubility in G1/S (log2)” value is 0.0107. Also, the thermal stability score in series [2] (setting [5]) is -0.699; in series [2] (cell cycle stage: mitosis), -0.707. Also, the “solubility change mitosis (log2)” value in series [3] was -0.137. For the same sequence, the melting temperature in series [4] (cell cycle stage: G1/S) is 50.7 °C; in series [4] (cell cycle stage: mitosis), 51 °C.
As for “MGKEQELLEAARTGHLPAVEKLLSGKRLSSGFGGGGGGGSGGGGGGSGGGGGGLGSSSHPLSSLLSMWRGPNVNCVDSTGYTPLHHAALNGHKDVVEVLLRNDALTNVADSKGCYPLHLAAWKGDAQIVRLLIHQGPSHTRVNEQNNDNETALHCAAQYGHTEVVKVLLEELTDPTMRNNKFETPLDLAALYGRLEVVKMLLNAHPNLLSCNTKKHTPLHLAARNGHKAVVQVLLDAGMDSNYQTEMGSALHEAALFGKTDVVQILLAAGTDVNIKDNHGLTALDTVRELPSQKSQQIAALIEDHMTGKRSTKEVDKTPPPQPPLISSMDSISQKSQGDVEKAVTELIIDFDANAEEEGPYEALYNAISCHSLDSMASGRSSDQDSTNKEAEAAGVKPAGVRPRERPPPPAKPPPDEEEEDHIDKKYFPLTASEVLSMRPRIHGSAAREEDEHPYELLLTAETKKVVLVDGKTKDHRRSSSSRSQDSAEGQDGQVPEQFSGLLHGSSPVCEVGQDPFQLLCTAGQSHPDGSPQQGACHKASMQLEETGVHAPGASQPSALDQSKRVGYLTGLPTTNSRSHPETLTHTASPHPGGAEEGDRSGARSRAPPTSKPKAELKLSRSLSKSDSDLLTCSPTEDATMGSRSESLSNCSIGKKRLEKSPSFASEWDEIEKIMSSIGEGIDFSQERQKISGLRTLEQSVGEWLESIGLQQYESKLLLNGFDDVHFLGSNVMEEQDLRDIGISDPQHRRKLLQAARSLPKVKALGYDGNSPPSVPSWLDSLGLQDYVHSFLSSGYSSIDTVKNLWELELVNVLKVQLLGHRKRIIASLADRPYEEPPQKPPRFSQLRCQDLLSQTSSPLSQNDSCTGRSADLLLPPGDTGRRRHDSLHDPAAPSRAERFRIQEEHREAKLTLRPPSLAAPYAPVQSWQHQPEKLIFESCGYEANYLGSMLIKDLRGTESTQDACAKMRKSTEHMKKIPTIILSITYKGVKFIDASNKNVIAEHEIRNISCAAQDPEDLCTFAYITKDLQTSHHYCHVFSTVDVNLTYEIILTLGQAFEVAYQLALQAQKSRATGASAAEMIETKSSKPVPKPRVGVRKSALEPPDMDQDAQSHASVSWVVDPKPDSKRSLSTN [ANKS1A]”, the “solubility in G1/S (log2)” value in series [1] worked out at 0.191. Besides, the thermal stability score turned out to be 0.94 in series [2] (setting [5]) and 1.51 in series [2] (cell cycle stage: mitosis). Moreover, the “solubility change mitosis (log2)” value in series [3] is -0.0097. The melting temperature in series [4] (cell cycle stage: G1/S) came out at 49.9 °C; in series [4] (cell cycle stage: mitosis), 50.1 °C.
For “MGKKGKKEKKGRGAEKTAAKMEKKVSKRSRKEEEDLEALIAHFQTLDAKRTQTVELPCPPPSPRLNASLSVHPEKDELILFGGEYFNGQKTFLYNELYVYNTRKDTWTKVDIPSPPPRRCAHQAVVVPQGGGQLWVFGGEFASPNGEQFYHYKDLWVLHLATKTWEQVKSTGGPSGRSGHRMVAWKRQLILFGGFHESTRDYIYYNDVYAFNLDTFTWSKLSPSGTGPTPRSGCQMSVTPQGGIVVYGGYSKQRVKKDVDKGTRHSDMFLLKPEDGREDKWVWTRMNPSGVKPTPRSGFSVAMAPNHQTLFFGGVCDEEEEESLSGEFFNDLYFYDATRNRWFEGQLKGPKSEKKKRRRGRKEEPEGGSRPACGGAGTQGPVQLVKEVVAEDGTVVTIKQVLTAPGSAGQPRSEDEDSLEEAGSPAPGPCPRSNAMLAVKHGVLYVYGGMFEAGDRQVTLSDLHCLDLHRMEAWKALVEMDPETQEWLEETDSEEDSEEVEGAEGGVDDEDSGEESGAED [KLHDC4]”, the “solubility in G1/S (log2)” value in series [1] is -0.239. The thermal stability score in series [2] (setting [5]) is -0.0688; in series [2] (cell cycle stage: mitosis) it was -0.148. For the same sequence, in series [3], the “solubility change mitosis (log2)” value is -0.00461. For the same sequence, the results for the melting temperature in series [4] (cell cycle stage: G1/S) and in series [4] (cell cycle stage: mitosis) were 49.7 °C and 48.9 °C, respectively.
